Common to all, as to assay: anti-GFP affinity gel immunoprecipitation and western blot densitometry
On the technique in general: In western blotting, separated proteins are transferred to a membrane and probed.

The target of one assay is mCherry-A123. The conditions noted are these: HEK293T cells co-transfected, lysed at 2 dpt; parent: est. 0.97; read off a plot.
The next assay concerns the target mCherry-A44. Particulars: HEK293T cells co-transfected, lysed at 2 dpt; parent: est. 1.0; read off a plot.
The next assay has as its target mCherry-A171. Particulars: HEK293T cells co-transfected, lysed at 2 dpt; parent: est. 1.0; read off a plot.

Take “Etf-2 (full-length)–GFP (from UniProt Q2GHK1) Q245A”: the response (relative density (intrabody / Etf-2-GFP)) came to 0.84 in the assay with mCherry-A123, 0.25 with mCherry-A44 and 0.83 with mCherry-A171.
Consider “Etf-2 (full-length)–GFP (from UniProt Q2GHK1) R188A”, for which the response (relative density (intrabody / Etf-2-GFP)) in the assay with mCherry-A123 amounted to 0.94; with mCherry-A44, 1.1; with mCherry-A171, 0.85.
The matching figures for “Etf-2 (full-length)–GFP (from UniProt Q2GHK1) R188A; Q245A”: 0.1, 0.24 and 0.88.

These data come from publication PMC12344899.
